Laboratory results published in IntAct's records for PubMed 29892012.

B1: Protein arginine N-methyltransferase 8 (Homo sapiens), Q9NR22 (parent)
chain: MGMKHSSRCLLLRRKMAENAAESTEVNSPPSQPPQPVVPAKPVQCVHHVSTQPSCPGRGKMSKLLNPEEMTSRDYYFDSYAHFGIHEEMLKDEVRTLTYRNSMYHNKHVFKDKVVLDVGSGTGILSMFAAKAGAKKVFGIECSSISDYSEKIIKANHLDNIITIFKGKVEEVELPVEKVDIIISEWMGYCLFYESMLNTVIFARDKWLKPGGLMFPDRAALYVVAIEDRQYKDFKIHWWENVYGFDMTCIRDVAMKEPLVDIVDPKQVVTNACLIKEVDIYTVKTEELSFTSAFCLQIQRNDYVHALVTYFNIEFTKCHKKMGFSTAPDAPYTHWKQTVFYLEDYLTVRRGEEIYGTISMKPNAKNVRDLDFTVDLDFKGQLCETSVSNDYKMR
partner: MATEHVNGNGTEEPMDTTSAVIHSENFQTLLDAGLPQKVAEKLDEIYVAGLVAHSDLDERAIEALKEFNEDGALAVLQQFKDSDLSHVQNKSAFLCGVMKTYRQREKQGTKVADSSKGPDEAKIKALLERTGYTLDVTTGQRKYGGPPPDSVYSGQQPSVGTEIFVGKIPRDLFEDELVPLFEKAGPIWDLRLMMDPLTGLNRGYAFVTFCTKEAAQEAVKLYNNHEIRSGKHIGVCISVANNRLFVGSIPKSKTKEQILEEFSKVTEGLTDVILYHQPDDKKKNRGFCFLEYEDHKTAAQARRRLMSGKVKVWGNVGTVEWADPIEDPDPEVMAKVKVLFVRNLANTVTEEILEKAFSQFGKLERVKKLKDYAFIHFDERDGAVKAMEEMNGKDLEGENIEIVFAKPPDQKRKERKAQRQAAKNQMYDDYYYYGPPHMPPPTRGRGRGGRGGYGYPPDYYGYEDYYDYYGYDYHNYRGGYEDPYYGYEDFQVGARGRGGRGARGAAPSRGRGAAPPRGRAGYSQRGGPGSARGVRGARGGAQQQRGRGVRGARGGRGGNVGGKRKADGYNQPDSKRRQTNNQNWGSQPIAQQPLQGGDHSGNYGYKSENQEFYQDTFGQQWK
B2: Coiled-coil domain-containing protein 120 (Homo sapiens), Q96HB5-4 (parent)
chain: MRREPRYQGQVGPDIHTDSERTLSSHQPRPLDSTKMEVKGQLISSPTFNAPAALFGEAAPQVKSERLRGLLDRQRTLQEALSLKLQELRKVCLQEAELTGQLPPECPLEPGERPQLVRRRPPTARAYPPPHPNQAHHSLCPAEELALEALEREVSVQQQIAAAARRLALAPDLSTEQRRRRRQVQADALRRLHELEEQLRDVRARLGLPVLPLPQPLPLSTGSVITTQGVCLGMRLAQLSQEDVVLHSESSSLSESGASHDNEEPHGCFSLAERPSPPKAWDQLRAVSGGSPERRTPWKPPPSDLYGDLKSRRNSVASPTSPTRSLPRSASSFEGRSVPATPVLTRGAGPQLCKPEGLHSRQWSGSQDSQMGFPRADPASDRASLFVARTRRSNSSEALLVDRAAGGGAGSPPAPLAPSASGPPVCKSSEVLYERPQPTPAFSSRTAGPPDPPRAARPSSAAPASRGAPRLPPVCGDFLLDYSLDRGLPRSGGGTGWGELPPAAEVPGPLSRRDGLLTMLPGPPPVYAADSNSPLLRTKDPHTRATRTKPCGLPPEAAEGPEVHPNPLLWMPPPTRIPSAGERSGHKNLALEGLRDWYIRNSGLAAGPQRRPVLPSVGPPHPPFLHARCYEVGQALYGAPSQAPLPHSRSFTAPPVSGRYYADFLYPPELSARLSDLTLEGEQSSSSDTQTPGTLV
partner: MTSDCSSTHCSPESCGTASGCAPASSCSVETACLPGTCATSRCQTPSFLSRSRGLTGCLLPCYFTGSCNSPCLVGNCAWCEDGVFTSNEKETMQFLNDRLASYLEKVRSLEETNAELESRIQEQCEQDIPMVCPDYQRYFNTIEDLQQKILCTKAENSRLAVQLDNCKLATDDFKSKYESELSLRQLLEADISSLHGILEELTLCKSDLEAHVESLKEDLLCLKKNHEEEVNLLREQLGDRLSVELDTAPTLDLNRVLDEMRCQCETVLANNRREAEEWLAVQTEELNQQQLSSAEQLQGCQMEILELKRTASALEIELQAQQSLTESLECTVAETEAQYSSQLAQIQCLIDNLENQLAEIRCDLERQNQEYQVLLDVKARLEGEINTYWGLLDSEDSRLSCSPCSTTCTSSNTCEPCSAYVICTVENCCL
B3: Zyxin (Homo sapiens), Q15942 (parent)
chain: MAAPRPSPAISVSVSAPAFYAPQKKFGPVVAPKPKVNPFRPGDSEPPPAPGAQRAQMGRVGEIPPPPPEDFPLPPPPLAGDGDDAEGALGGAFPPPPPPIEESFPPAPLEEEIFPSPPPPPEEEGGPEAPIPPPPQPREKVSSIDLEIDSLSSLLDDMTKNDPFKARVSSGYVPPPVATPFSSKSSTKPAAGGTAPLPPWKSPSSSQPLPQVPAPAQSQTQFHVQPQPQPKPQVQLHVQSQTQPVSLANTQPRGPPASSPAPAPKFSPVTPKFTPVASKFSPGAPGGSGSQPNQKLGHPEALSAGTGSPQPPSFTYAQQREKPRVQEKQHPVPPPAQNQNQVRSPGAPGPLTLKEVEELEQLTQQLMQDMEHPQRQNVAVNELCGRCHQPLARAQPAVRALGQLFHIACFTCHQCAQQLQGQQFYSLEGAPYCEGCYTDTLEKCNTCGEPITDRMLRATGKAYHPHCFTCVVCARPLEGTSFIVDQANRPHCVPDYHKQYAPRCSVCSEPIMPEPGRDETVRVVALDKNFHMKCYKCEDCGKPLSIEADDNGCFPLDGHVLCRKCHTARAQT
partner: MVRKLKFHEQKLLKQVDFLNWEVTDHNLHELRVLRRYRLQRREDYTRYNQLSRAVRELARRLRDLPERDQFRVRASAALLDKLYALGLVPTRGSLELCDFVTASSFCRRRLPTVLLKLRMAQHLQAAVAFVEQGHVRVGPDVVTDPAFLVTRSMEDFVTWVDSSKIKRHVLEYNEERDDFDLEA
B4: Inositol polyphosphate 5-phosphatase K (Homo sapiens), Q9BT40 (parent)
chain: MSSRKLSGPKGRRLSIHVVTWNVASAAPPLDLSDLLQLNNRNLNLDIYVIGLQELNSGIISLLSDAAFNDSWSSFLMDVLSPLSFIKVSHVRMQGILLLVFAKYQHLPYIQILSTKSTPTGLFGYWGNKGGVNICLKLYGYYVSIINCHLPPHISNNYQRLEHFDRILEMQNCEGRDIPNILDHDLIIWFGDMNFRIEDFGLHFVRESIKNRCYGGLWEKDQLSIAKKHDPLLREFQEGRLLFPPTYKFDRNSNDYDTSEKKRKPAWTDRILWRLKRQPCAGPDTPIPPASHFSLSLRGYSSHMTYGISDHKPVSGTFDLELKPLVSAPLIVLMPEDLWTVENDMMVSYSSTSDFPSSPWDWIGLYKVGLRDVNDYVSYAWVGDSKVSCSDNLNQVYIDISNIPTTEDEFLLCYYSNSLRSVVGISRPFQIPPGSLREDPLGEAQPQI
partner: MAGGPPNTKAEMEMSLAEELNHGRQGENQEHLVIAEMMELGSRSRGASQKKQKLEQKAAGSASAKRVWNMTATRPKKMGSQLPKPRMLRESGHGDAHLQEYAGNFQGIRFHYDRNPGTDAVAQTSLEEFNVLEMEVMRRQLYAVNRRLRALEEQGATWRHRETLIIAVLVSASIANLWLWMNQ
B5: Enhancer of mRNA-decapping protein 3 (Homo sapiens), Q96F86 (parent)
chain: MATDWLGSIVSINCGDSLGVYQGRVSAVDQVSQTISLTRPFHNGVKCLVPEVTFRAGDITELKILEIPGPGDNQHFGDLHQTELGPSGAGCQVGINQNGTGKFVKKPASSSSAPQNIPKRTDVKSQDVAVSPQQQQCSKSYVDRHMESLSQSKSFRRRHNSWSSSSRHPNQATPKKSGLKNGQMKNKDDECFGDDIEEIPDTDFDFEGNLALFDKAAVFEEIDTYERRSGTRSRGIPNERPTRYRHDENILESEPIVYRRIIVPHNVSKEFCTDSGLVVPSISYELHKKLLSVAEKHGLTLERRLEMTGVCASQMALTLLGGPNRLNPKNVHQRPTVALLCGPHVKGAQGISCGRHLANHDVQVILFLPNFVKMLESITNELSLFSKTQGQQVSSLKDLPTSPVDLVINCLDCPENVFLRDQPWYKAAVAWANQNRAPVLSIDPPVHEVEQGIDAKWSLALGLPLPLGEHAGRIYLCDIGIPQQVFQEVGINYHSPFGCKFVIPLHSA
partner: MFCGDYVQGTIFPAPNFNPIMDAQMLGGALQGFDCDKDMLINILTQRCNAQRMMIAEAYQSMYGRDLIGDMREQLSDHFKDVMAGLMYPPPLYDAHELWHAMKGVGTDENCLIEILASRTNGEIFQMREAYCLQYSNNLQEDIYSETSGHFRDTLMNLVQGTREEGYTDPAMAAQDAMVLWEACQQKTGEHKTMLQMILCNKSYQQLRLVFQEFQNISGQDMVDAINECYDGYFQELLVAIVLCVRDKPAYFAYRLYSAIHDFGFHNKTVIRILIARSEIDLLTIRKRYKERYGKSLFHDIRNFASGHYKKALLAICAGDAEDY
B6: Glutaredoxin-3 (Homo sapiens), O76003 (parent)
chain: MAAGAAEAAVAAVEEVGSAGQFEELLRLKAKSLLVVHFWAPWAPQCAQMNEVMAELAKELPQVSFVKLEAEGVPEVSEKYEISSVPTFLFFKNSQKIDRLDGAHAPELTKKVQRHASSGSFLPSANEHLKEDLNLRLKKLTHAAPCMLFMKGTPQEPRCGFSKQMVEILHKHNIQFSSFDIFSDEEVRQGLKAYSSWPTYPQLYVSGELIGGLDIIKELEASEELDTICPKAPKLEERLKVLTNKASVMLFMKGNKQEAKCGFSKQILEILNSTGVEYETFDILEDEEVRQGLKAYSNWPTYPQLYVKGELVGGLDIVKELKENGELLPILRGEN
partner: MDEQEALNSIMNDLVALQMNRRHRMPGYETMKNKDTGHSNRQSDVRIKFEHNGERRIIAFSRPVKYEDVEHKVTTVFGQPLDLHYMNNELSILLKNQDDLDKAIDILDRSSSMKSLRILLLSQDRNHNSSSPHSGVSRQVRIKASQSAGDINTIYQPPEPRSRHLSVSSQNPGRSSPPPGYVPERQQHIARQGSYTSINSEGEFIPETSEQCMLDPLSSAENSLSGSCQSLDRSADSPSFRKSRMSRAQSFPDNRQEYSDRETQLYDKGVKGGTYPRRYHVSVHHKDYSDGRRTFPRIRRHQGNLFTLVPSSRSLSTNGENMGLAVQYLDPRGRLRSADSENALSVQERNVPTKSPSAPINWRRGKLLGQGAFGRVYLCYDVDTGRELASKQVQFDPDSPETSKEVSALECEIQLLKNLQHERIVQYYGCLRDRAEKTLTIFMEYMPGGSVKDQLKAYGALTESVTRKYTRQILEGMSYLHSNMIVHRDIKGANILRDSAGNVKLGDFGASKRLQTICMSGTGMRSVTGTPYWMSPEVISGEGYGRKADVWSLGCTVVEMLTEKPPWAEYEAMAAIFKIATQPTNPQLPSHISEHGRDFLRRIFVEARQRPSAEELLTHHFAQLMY

Variants of: B1
Settings: with hnrpq_human SYNCRIP

| effect of a mutation on the interaction | Variant |
| --- | --- |
| with no effect | R350S |

Variants of: B2
Settings: with KRT40, Q6A162

| effect of a mutation on the interaction | Variant |
| --- | --- |
| with no effect | R346W |

Variants of: B3
Settings: with imp3_human IMP3, Q9NV31

| effect of a mutation on the interaction | Variant |
| --- | --- |
| with no effect | R167G |

Variants of: B4
Settings: with fate1_human FATE1, Q969F0

| effect of a mutation on the interaction | Variant |
| --- | --- |
| disrupting interaction strength | R437K |

Variants of: B5
Settings: with anx10_human ANXA10, Q9UJ72

| effect of a mutation on the interaction | Variant |
| --- | --- |
| with no effect | F213L |

Variants of: B6
Settings: with m3k3_human MAP3K3, Q99759

| effect of a mutation on the interaction | Variant |
| --- | --- |
| with no effect | P145A |
